Data published in PMC12042621 (Structure (London, England : 1993), 2025).

B1: S1-RBD-42_(E88K) (VHH)
VHH: QVQLVESGGGLVQAGGSLRLSCVVSGSTFSNTFMDWYRQAPGKQREFVATISSGGTTNYAVFVKGRFTISRDGAKNTVYLQMNSLKPEDTAVYYCHAALPIGGDYWGQGTQVTVS
B2: S1-RBD-14_(E89K) (VHH)
VHH: QVQLVESGGGLVQAGGSVRLSCAASGRSFSINPMGWFRQAPGKEREFVAAISWSGSKTVYVDSVKGRFSISRDNAKNTVYLQMNSLKPEDTAVYHCAVASRGPVYGANYVPGPHEYEYWGQGTQVTVS

Target: SARS-CoV-2 spike S1 (SARS-CoV-2, wild type (Wuhan-Hu-1), UniProt P0DTC2)
Assay: SPR

Binder | Kd [nM]
B1 | 0.1
B2 | 0.3
